± gives the standard error.
B1: library; numbered along this chain (parent)
chain: MATDAALRRLLRLHRTEIAVAVDSAFPLLHALADHDVVPEDKFQETLHLKEKEGCPQAFHALLSWLLTQDSTAILDFWRVLFKDYNLERYGRLQPILDSFPKDVDLSQPRKGRKPPAVPKALVPPPRLPTKRKASEEARAAAPAALTPRGTASPGSQLKAKPPKKPESSAEQQRLPLGNGIQTMSASVQRAVAMSSGDVPGARGAVEGILIQQVFESGGSKKCIQVGGEFYTPSKFEDSGSGKNKARSSSGPKPLVRAKGAQGAAPGGGEARLGQQGSVPAPLALPSDPQLHQKNEDECAVCRDGGELICCDGCPRAFHLACLSPPLREIPSGTWRCSSCLQATVQEVQPRAEEPRPQEPPVETPLPPGLRSAGEEVRGPPGEPLAGMDTTLVYKHLPAPPSAAPLPGLDSSALHPLLCVGPEGQQNLAPGARCGVCGDGTDVLRCTHCAAAFHWRCHFPAGTSRPGTGLRCRSCSGDVTPAPVEGVLAPSPARLAPGPAKDDTASHEPALHRDDLESLLSEHTFDGILQWAIQSMARPAAPFPS

Variants of: B1
Assay: AIRE transcriptional activation functional score (insulin promoter-GFP; nonsense median 0, synonymous median 1) (normalised score); higher = higher AIRE activity (more reporter activation)
Settings: with insulin promoter-GFP reporter in HEK293
Procedure: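 Deep mutational scan of full-length human AIRE (codon-optimized cDNA, DT-POPCode NNN libraries over three regions) integrated at a Bxb1 landing pad in HEK293 cells carrying an insulin core promoter-GFP reporter at a Flp-In site. Cells were sorted for the top 10% GFP about 14 days after transfection. Variant frequency log-ratios (select vs non-select, TileSeq) were rescaled so that the nonsense median is 0 and the synonymous median is 1, then averaged over biological replicates.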

| Variant | AIRE transcriptional activation functional score |
| --- | --- |
| I224W | 1.11 ± 0.12 |
| T344V | 0.896 ± 0.23 |
| G333N | 0.719 ± 0.62 |
| D439E | 0.881 ± 0.2 |
| K501H | 0.51 ± 0.063 |
| S464P | 1.21 ± 0.22 |
| S464I | 1.17 ± 0.076 |
| F82C | -0.279 ± 0.34 |
| L128K | -0.124 ± 0.14 |
| L128M | 1.32 ± 0.058 |
| L128V | 1.12 ± 0.24 |
| E216V | 0.252 ± 0.2 |
| V256K | 0.102 ± 0.38 |
| A321F | 1.1 ± 0.39 |
| P252Q | 0.904 ± 0.34 |
| H14N | 1.68 ± 0.1 |
| R513P | 0.55 ± 0.85 |
| K235V | 1.45 ± 0.27 |
| K235E | 0.408 ± 0.17 |
| E376T | 0.984 ± 0.57 |
| E376N | 1.32 ± 0.077 |
| R473K | 0.66 ± 0.16 |
| R473M | 0.947 ± 0.08 |
| R473C | 0.937 ± 0.055 |

| Variant | AIRE transcriptional activation functional score |
| --- | --- |
| R132A | 0.179 ± 0.53 |
| A144H | 0.0775 ± 0.4 |
| P56C | -0.173 ± 0.26 |
| L417E | 0.739 ± 0.049 |
| G91I | -0.00302 ± 1.2 |
| A510M | 1.37 ± 0.095 |
| A413G | 1.12 ± 0.37 |
| L516K | 0.259 ± 0.031 |
| A540C | 1.37 ± 0.19 |
| P282H | 0.91 ± 0.075 |
| L158I | 0.959 ± 0.38 |
| C475I | 0.147 ± 0.15 |
| P361W | 1.29 ± 0.094 |
| L285N | 0.918 ± 0.047 |
| A138Y | 1.36 ± 0.22 |
| T130C | 1.38 ± 0.32 |
| G424N | 0.684 ± 0.058 |
| G424T | 1.59 ± 0.12 |
| A284L | 1.02 ± 0.29 |
| G431R | 0.579 ± 0.19 |
| V443M | 1.29 ± 0.095 |
| P280K | 0.978 ± 0.09 |
| A193I | 0.281 ± 0.29 |
| S187Y | 0.152 ± 0.12 |

| Variant | AIRE transcriptional activation functional score |
| --- | --- |
| T504S | 1.44 ± 0.18 |
| L29F | -0.401 ± 0.47 |
| P233Y | 0.576 ± 0.39 |
| P233G | 1.15 ± 0.044 |
| L488Q | 0.827 ± 0.24 |
| A117K | 0.457 ± 0.24 |
| A117C | 1.1 ± 0.64 |
| A117F | 1.04 ± 0.38 |
| A117E | 1.03 ± 0.14 |
| C419D | 0.584 ± 0.27 |
| A403Q | 0.915 ± 0.11 |
| K83Q | 0.546 ± 1 |
| Y231E | 0.639 ± 0.14 |
| Y231C | 0.601 ± 0.069 |
| Y231L | 0.803 ± 0.15 |
| Y231G | 0.475 ± 0.11 |
| N427D | 1.07 ± 0.42 |
| N427R | 0.362 ± 0.17 |
| K159C | 1.14 ± 0.28 |
| L32F | -0.313 ± 0.24 |
| L32R | -0.205 ± 0.63 |
| P384T | 1.17 ± 0.12 |
| P148E | 1.67 ± 0.49 |
| P325M | 1.15 ± 0.14 |

| Variant | AIRE transcriptional activation functional score |
| --- | --- |
| P325F | 1.01 ± 0.08 |
| L93E | 0.401 ± 0.37 |
| V104G | -0.0739 ± 0.33 |
| V104I | 0.904 ± 0.21 |
| F59H | 0.308 ± 0.5 |
| F59L | 0.0546 ± 0.18 |
| G240Q | 0.0726 ± 0.14 |
| E354D | 1.22 ± 0.22 |
| P163T | 0.923 ± 0.82 |
| G268S | 1.09 ± 0.39 |
| I18C | -0.426 ± 0.095 |
| R471A | 0.351 ± 0.28 |
| R471E | 0.786 ± 0.84 |
| L7V | -0.199 ± 0.32 |
| Q262G | 1.33 ± 0.34 |
| Q530P | 0.385 ± 0.2 |
| Q530F | -0.0468 ± 0.091 |
| P166G | 1.61 ± 0.69 |
| A191I | -0.149 ± 0.19 |
| W455F | 1.3 ± 0.1 |
| R139C | 0.377 ± 0.063 |
| L370Q | 0.241 ± 0.24 |
| L520K | 0.452 ± 0.077 |
| Q293V | 0.932 ± 0.26 |

| Variant | AIRE transcriptional activation functional score |
| --- | --- |
| L529S | -0.21 ± 0.34 |
| D41H | -1.75 ± 0.19 |
| F318S | 1.19 ± 0.21 |
| P176C | 2.34 ± 0.29 |
| H292C | 0.815 ± 0.12 |
| H448S | 0.0363 ± 0.091 |
| A505L | 0.848 ± 0.27 |
| S185L | -0.0826 ± 0.26 |
| S185N | 0.832 ± 0.055 |
| A541T | 0.842 ± 0.18 |
| A541K | 0.252 ± 0.083 |
| P289S | 1.3 ± 0.22 |
| K395N | 0.081 ± 0.31 |
| K395W | 0.234 ± 0.056 |
| E296S | 0.991 ± 0.26 |
| E375S | 0.907 ± 0.36 |
| H507I | 1.27 ± 0.25 |
| L175D | 1.04 ± 0.98 |
| V38K | 0.354 ± 0.16 |
| F215Y | 0.54 ± 0.17 |
| R15T | 0.316 ± 0.23 |
| V301F | 1.29 ± 0.21 |
| V301Q | 1.08 ± 0.1 |
| Q172C | 1.13 ± 0.49 |

| Variant | AIRE transcriptional activation functional score |
| --- | --- |
| T147C | 0.358 ± 0.19 |
| K120H | 0.932 ± 0.7 |
| G438L | 0.0897 ± 0.28 |
| G313P | 0.756 ± 0.37 |
| G313W | 1.27 ± 0.052 |
| D84N | 0.535 ± 0.19 |
| D478H | 0.829 ± 0.047 |
| S521R | 0.245 ± 0.29 |
| L414C | 0.792 ± 0.16 |
| L414N | 1.07 ± 0.054 |
| L519I | 0.439 ± 0.1 |
| L519A | 0.739 ± 0.25 |
| Q44G | 0.0554 ± 0.5 |
| Q349H | 0.951 ± 0.05 |
| Q349R | 0.95 ± 0.28 |
| G486T | 0.154 ± 0.23 |
| T390L | 1.23 ± 0.45 |
| R456I | 1.1 ± 0.72 |
| T468P | 0.984 ± 0.27 |
| L177D | 0.322 ± 0.41 |
| R8I | 0.433 ± 0.29 |
| P355A | 0.981 ± 0.13 |
| F543C | 0.138 ± 0.091 |
| E383G | 1.09 ± 0.19 |

| Variant | AIRE transcriptional activation functional score |
| --- | --- |
| D389G | 0.913 ± 0.38 |
| D389W | 0.0908 ± 0.069 |
| P119W | 1.58 ± 0.045 |
| K245F | 1.67 ± 0.089 |
| L75E | -0.603 ± 0.18 |
| A532S | 0.141 ± 0.15 |
| A532D | 0.194 ± 0.2 |
| V362P | 0.988 ± 0.16 |
| V362L | 0.999 ± 0.16 |
| P380A | 0.626 ± 0.18 |
| P154S | 0.685 ± 0.35 |
| M536R | -0.0464 ± 0.14 |
| M536D | 0.726 ± 0.089 |
| P499H | 1.16 ± 0.058 |
| P430Q | 1.01 ± 0.36 |
| P407N | 1.39 ± 0.061 |
| S248L | 1.11 ± 0.31 |
| L10H | 1.75 ± 0.32 |
| L511K | -0.311 ± 0.054 |
| G54F | -0.19 ± 0.42 |
| G54D | 0.773 ± 0.27 |
| A265K | 0.641 ± 0.12 |
| L409H | 0.62 ± 0.44 |

— the supplement of paper PMC12667976
